What was measured:
Test in all cases: TurboID biotin proximity labelling with mass spectrometry
Details in all cases: 3rd instar larval muscle tissue (mef2-Gal4); parent: 1
[1] = molecular target: Prohibitin2
[2] = molecular target: Troponin-C
[3] = molecular target: SesB
[4] = molecular target: ATPsynD, SynO

- ratio to parent [1]: 0.18
- ratio to parent [2]: 0.07
- ratio to parent [3]: 0.29
- ratio to parent [4]: 0.3
Substance: Dmel\Tmem43wt::TurboID (from UniProt Q9VSB9) p.S333L

— paper PMC12618784
